What was measured:
[1] = system: mouse breast cancer 4T1 cell-transplanted models; test: In vivo breast cancer model (Example 21); design: species or system BALB/c mice; conditions: intraperitoneal 10 mg/kg on days 4 and 7; day 14
Method: Procedures and methods of the experiment were basically performed according to Examples 17 to 20 under substantially the same conditions as in the bone metastasis model experiments of Examples 17 to 20. Drug efficacy evaluation was conducted using mouse tumor models other than Snail-positive tumor bone metastasis models. The drug efficacy of the anti-FSTL1 antibody was evaluated using cancer-bearing models of BALB/c mice different in strain from the C57BL/6 mice used in the preceding tests. Changes were made as follows. • Day 0: transplantation of tumor cells (5×10^5 cells subcutaneously & 5×10^5 cells intravenously) Days 4 and 7: intraperitoneal administration of the antibody (10 mg/kg) • Day 14: drug efficacy evaluation (subcutaneous tumor growth)
The tumor volumes of the mice were measured 4, 7, 11, and 14 days after tumor implantation.

mouse bone marrow cells = test: Inhibition of induction of MSCs, cancer-associated MSCs and M-MDSCs by FSTL1 in mouse bone marrow cells (Examples 13-15); type: cell-based; conditions: Example 15: 20 ng/mL FSTL1; antibody 20.0, 10.0, 5.0 or 2.5 μg/ml; 8 days; FIG. 104A
Method: Mouse bone marrow cells prepared in the same way as in Example 4 were supplemented with 20 ng/mL ([…], #7-34, #8-1, or #8-4), an anti-PD-L1 antibody reported to have an immunosuppression-mitigating effect, or a control antibody anti-DNP antibody and cultured under stimulation. 8 days thereafter, the number of cells was counted while the cells were stained with a PE-Cy5-labeled anti-CD45 antibody, a PE-labeled anti-ALCAM antibody, a FITC-labeled anti-CD271 antibody (Abcam plc, Cat. No. AB62122), a FITC-labeled anti-CD11b antibody (BD Pharmingen/Becton, Dickinson and Company, Cat. No. 553310), and a PE-Cy5-labeled anti-Gr1 antibody (eBioscience, Cat. No. 15-5931) in order to detect MSCs (CD45− negative cells), cancer-associated MSCs (CD45-negative, ALCAM-positive, and CD271-positive cells) which are MSCs increasing in number in association with cancer metastasis, and monocytic myeloid-derived suppressor cells (M-MDSCs: CD11b-positive, Gr1-positive, and ALCAM-positive cells) increasing in number together with cancer-associated MSCs, and the contents of the cells mentioned above were analyzed by flow cytometry using FACScan to calculate the percentage and number of MSCs per culture (FIG. 102). […]
The antibody clone (#6-55, #7, #10, #13, or #22) was evaluated for its activity by the same testing method as in Example 13. #6-55 was set as a positive control for activity. […]

FSTL1 = target: T1, FSTL1 (Homo sapiens, UniProt Q12841); test: Action of anti-FSTL1 antibody on Panc1 under FSTL1 stimulation; type: cell-based; design: purchased R&D Systems, Inc. 1694-FN-050; conditions: Panc1 stimulated with FSTL1 for 3 days; antibody 5 μg/ml
T1 sequence (Q12841 21-308): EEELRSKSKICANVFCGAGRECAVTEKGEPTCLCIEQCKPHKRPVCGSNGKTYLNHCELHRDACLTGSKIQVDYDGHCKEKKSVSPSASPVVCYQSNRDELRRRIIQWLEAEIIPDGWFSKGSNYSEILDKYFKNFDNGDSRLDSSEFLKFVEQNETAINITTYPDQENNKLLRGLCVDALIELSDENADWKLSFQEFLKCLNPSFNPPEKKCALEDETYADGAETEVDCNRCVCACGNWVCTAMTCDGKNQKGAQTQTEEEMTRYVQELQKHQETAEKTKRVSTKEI
Method: Next, in order to examine how surrounding tumor cells were changed in a cancer microenvironment by receiving FSTL1 produced by Snail/FSTL1-expressing cells, and how the anti-FSTL1 antibody acts thereon, a human pancreatic cancer cell line Panc1 confirmed to express Snail or FSTL1 only slightly was stimulated with FSTL1 for 3 days. The anti-FSTL1 antibody (#6-55, 5 μg/ml) or a control antibody (aHema, 5 μg/ml) was added to this culture system, and subsequent change in cell function was analyzed in the same way as in the preceding paragraph. […] The paper also reports that FSTL1 enhances invasive capacity.

B1: #6-55: chicken-mouse chimeric anti-FSTL1 antibody clone; variable regions SEQ ID NO: 783 (light), 785 (heavy) (antibody, V domains shown)
VH: AVTLDESGGGLQTPGGALSLVCKGSGFTFTSVTMQWVRQAPGKGLEWVASVCSGSSTYYAPAVKGRATISRDNGQSTVRLQLSNLRPEDTGTYYCAKIAGRARWSCTSAAYNIDAWGHGTEVIVSS
VL: ASTQPSSVSAIPGETVKITCSGGGNNYGWYQQRSPGSAPVTVIYYNDNRPSNIPSRFSGSTSGSTSTLTITGVQADDEAIYYCGSWDSNTDSGIFGAGTTLTVL
modifications: mouse constant regions
With B1 the “growth of 4T1 subcutaneous tumor” value [1] was “significantly suppressed”, the “inhibitory activity against the induction of MSCs, cancer-associated MSCs, and M-MDSCs by FSTL1” value (mouse bone marrow cells) was “at the same level” and the cell growth (FSTL1) was “the cell growth was reduced”. For the same molecule, the “invasive capacity enhanced by FSTL1” value (FSTL1) was “the action thereof is canceled”.

From patent publication US20180021429A1, “ANTICANCER AGENTS OR ANTIMETASTATIC AGENTS USING FSTL1 AND COMBINATION DRUG THEREOF” (PHARMA FOODS INTERNATIONAL CO., LTD., priority 2015, published 2018)
